Earlier results on one substance are cited in publication PMC10631023.

In general, Kd refers to the constant that tells how readily two partners part at equilibrium.

One data set has as its target PSGL-1 (Homo sapiens) (UniProt Q14242).
The target of the next data set is VSIG-3 (Homo sapiens) (UniProt Q5DX21).

Values joined by “and” are separate entries in the source; they are usually repeats but may differ in a detail not shown here. Identical values can stand only once.

Chain of UniProt Q5DX21 (Q5DX21 23-241): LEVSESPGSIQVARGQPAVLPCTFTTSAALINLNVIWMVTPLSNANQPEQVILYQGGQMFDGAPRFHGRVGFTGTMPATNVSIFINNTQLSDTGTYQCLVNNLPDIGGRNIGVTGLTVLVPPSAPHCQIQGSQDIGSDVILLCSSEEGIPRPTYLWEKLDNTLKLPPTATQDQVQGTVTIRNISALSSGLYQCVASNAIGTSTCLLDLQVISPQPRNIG
Chain of UniProt Q14242 (Q14242 42-320): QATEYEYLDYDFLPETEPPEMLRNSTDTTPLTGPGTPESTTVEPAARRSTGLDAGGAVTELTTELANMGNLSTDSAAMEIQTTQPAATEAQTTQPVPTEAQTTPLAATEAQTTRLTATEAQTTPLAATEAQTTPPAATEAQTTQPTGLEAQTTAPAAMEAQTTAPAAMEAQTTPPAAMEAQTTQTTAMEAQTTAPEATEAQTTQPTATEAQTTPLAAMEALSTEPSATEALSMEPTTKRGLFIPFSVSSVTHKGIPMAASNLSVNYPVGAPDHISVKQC

As to VISTA (from UniProt Q9H7M9), the Kd with PSGL-1 (Homo sapiens) is 4 nM; with VSIG-3 (Homo sapiens), 20 nM and 80 nM.
